The record followed here is publication PMC2882252 (Journal of the American Chemical Society, 2009).

Data set [1] has as its system N[C@H](CCC(=O)O)C(=O)O. As to the kind of experiment: purified protein. The following applies: active site. In kind it is biochemical, Bacillus subtilis.
In data set [2] the target is glutamate racemase (RacE) (Bacillus subtilis, UniProt P94556). In kind it is biochemical.
Substrate in data set [3]: N[C@@H](CCC(=O)O)C(=O)O
As to the kind of experiment: purified protein. The following applies: active site, between Cys74 and Cys185.

Turning to “glutamate racemase (RacE) T76A (Bacillus subtilis subsp. subtilis str. 168; T76A)”, the Michaelis-Menten constant (Km) in data set [1] was 8.6 ± 1.4 mM.
As to `O=C(O)c1cccc(C(=O)O)n1` [DPA, 2,6-pyridinedicarboxylic acid], the affinity in data set [2] corresponds to a Ki of 1970 ± 1160 µM.

B1: glutamate racemase (RacE) (Bacillus subtilis subsp. subtilis str. 168) (protein)
chain: MLEQPIGVIDSGVGGLTVAKEIMRQLPKENIIYVGDTKRCPYGPRPEEEVLQYTWELTNYLLENHHIKMLVIACNTATAIALDDIQRSVGIPVVGVIQPGARAAIKVTDNQHIGVIGTENTIKSNAYEEALLALNPDLKVENLACPLLVPFVESGKFLDKTADEIVKTSLYPLKDTSIDSLILGCTHYPILKEAIQRYMGEHVNIISSGDETAREVSTILSYKGLLNQSPIAPDHQFLTTGARDQFAKIADDWFGHEVGHVECISLQEPIKR
In the case of B1, the Michaelis constant (Km) in data set [3] is on record as 14 ± 6 mM.

A word on the Km: it is the substrate concentration at which the rate is half of its maximum. What is called Ki is a dissociation constant, usually derived from enzyme kinetics or from competition with a known ligand. A low value points to higher affinity.
